In US6835807B1, “Drug complex and drug delivery system” (Daiichi Pharmaceuticals Co., Ltd., priority 1998, dated 2004):
Marks after values point to notes of the source that are not given here.

What was measured:
[1] = system: Meth A cells; assay: Antineoplastic activity of the complexes of Examples 1, 5 and 6 (Example 10); format: in vivo, BALB/c mice; conditions: for IR, diminution rate of the tumor: 21th day; for Average tumor weight: tumor weighed on the 21th day
Experimental: Meth A cells were transplanted into BALB/c mice to prepare Meth A tumor-bearing mice. On the 7th day after the transplantation, the drug complexes shown in Examples 1, 5 and 6 were singly administered, respectively. The weight of the tumor was measured on the 21th day to evaluate the inhibitory activity on the tumor and the toxicity. In the table, * represents significance in Dunnet's test (*** p<0.001, ** P<0.01, * P<0.05), the dose is expressed in terms of the weight of anhydrous free base of DX-8951, and IR represents the diminution rate of the tumor.

[2] = system: Meth A tumor-bearing mice; assay: Maximum tolerated dose of the drug complexes of Examples 5, 6 and 7 (Example 9); format: in vivo, BALB/c mice; conditions: for BWLmax, maximum body-weight reduction rate / N, mice died/mice used / day when the maximum body-weight reduction was observed: single administration on the 13th day
Experimental: Meth A cells were transplanted into BALB/c mice to prepare Meth A tumor-bearing mice. On the 13th day, the drug complexes obtained in Examples 5, 6 and 7 were singly administered. After the administration, measurement of the body weight and observation of toxic death were made with time, and the maximum body-weight reduction rate and mortality were calculated, which are shown in Table 5. The dose is expressed in terms of the weight of anhydrous free base of DX-8951.
On the basis of the dose in which body weight reduction and death were observed, MTD of each complex were judged as follows.

[3] = Release of the drug compound from the drug complex in Meth A homogenate (Example 8); format: in vitro ADME, murine; conditions: for released amount of the drug (DX-8951), percentage of the drug in the drug complex used: 37° C., 50 μg/ml, after 20 hours
Experimental: (§1) (50 μg/ml). […] The released amount of the drug is expressed in percentage of the released amount of the drug to the amount of the drug in the drug complex used.

[4] = Release of the drug compound from the drug complex in plasma (Example 8); format: in vitro ADME; conditions: 37° C., 50 μg/ml, after 20 hours
Experimental: as §1

[5] = Release of the drug compound from the drug complex in buffer (Example 8); format: physicochemical; conditions: for released amount of the drug (DX-8951), percentage of the drug in the drug complex used: 37° C., 50 μg/ml, after 20 hours
Experimental: as §1

[6] = 0.15625 mg/kg, singly administered on the 7th day
[7] = 0.3125 mg/kg, singly administered on the 7th day
[8] = 0.625 mg/kg, singly administered on the 7th day
[9] = 1.25 mg/kg, singly administered on the 7th day
[10] = 1.875 mg/kg, singly administered on the 7th day

Carboxymethyldextran polyalcohol-Gly-Gly-Phe-Gly-NH-p-C 6H4—CH2—O—CO-DX-8951 [Example 5]
BWLmax, maximum body-weight reduction rate [1, 6]: <0%
N, mice died/mice used [1, 6]: 0/6
IR, diminution rate of the tumor [1, 6]: 9%
Average tumor weight [1, 6]: 2.394 ± 0.231 g
BWLmax, maximum body-weight reduction rate [1, 7]: <0%
N, mice died/mice used [1, 7]: 0/6
IR, diminution rate of the tumor [1, 7]: 57%
Average tumor weight [1, 7]: 1.128 ± 0.173*** g
BWLmax, maximum body-weight reduction rate [1, 8]: <0%
N, mice died/mice used [1, 8]: 0/6
IR, diminution rate of the tumor [1, 8]: 88%
Average tumor weight [1, 8]: 0.328 ± 0.164*** g
BWLmax, maximum body-weight reduction rate [1, 9]: <0%
N, mice died/mice used [1, 9]: 0/6
IR, diminution rate of the tumor [1, 9]: 100%
Average tumor weight [1, 9]: 0.010 ± 0.004*** g
BWLmax, maximum body-weight reduction rate [1, 10]: 12.3%
N, mice died/mice used [1, 10]: 0/6
day when the maximum body-weight reduction was observed [1, 10]: 13 days
IR, diminution rate of the tumor [1, 10]: 100%
Average tumor weight [1, 10]: 0.011 ± 0.003*** g
minimal effective dose relative to that of the drug complex shown in Example 1 ([1]; Meth A tumor-bearing mice): about ⅓
BWLmax, maximum body-weight reduction rate ([2]; 0.625 mg/kg): 2.0%
N, mice died/mice used ([2]; 0.625 mg/kg): 0/3
day when the maximum body-weight reduction was observed ([2]; 0.625 mg/kg): 14 days
BWLmax, maximum body-weight reduction rate ([2]; 1.25 mg/kg): 5.0%
N, mice died/mice used ([2]; 1.25 mg/kg): 0/3
day when the maximum body-weight reduction was observed ([2]; 1.25 mg/kg): 18 days
BWLmax, maximum body-weight reduction rate ([2]; 5 mg/kg): 28.6%
N, mice died/mice used ([2]; 5 mg/kg): 3/3
day when the maximum body-weight reduction was observed ([2]; 5 mg/kg): 18 days
BWLmax, maximum body-weight reduction rate ([2]; 10 mg/kg): 27.1%
N, mice died/mice used ([2]; 10 mg/kg): 3/3
day when the maximum body-weight reduction was observed ([2]; 10 mg/kg): 18 days
MTD relative to MTD of the drug complex obtained in Example 1 ([2]; Meth A tumor-bearing mice): about ⅓
N, mice died/mice used ([2]; […]): 3/3
released amount of the drug (DX-8951), percentage of the drug in the drug complex used ([3]; Meth A homogenate (pH 4.5)): 110.69%
released amount of the drug (DX-8951), percentage of the drug in the drug complex used ([3]; Meth A homogenate (pH 5.5)): 110.31%
released amount of the drug (DX-8951), percentage of the drug in the drug complex used ([3]; Meth A homogenate (pH 6.5)): 42.71%
release of the drug in words ([3]; weakly acidic homogenate): rapidly released
released amount of the drug (DX-8951), percentage of the drug in the drug complex used [4]: 0.13%
released amount of the drug (DX-8951), percentage of the drug in the drug complex used ([5]; Buffer (pH 4.5)): 0.79%
released amount of the drug (DX-8951), percentage of the drug in the drug complex used ([5]; Buffer (pH 5.5)): 0.71%
released amount of the drug (DX-8951), percentage of the drug in the drug complex used ([5]; Buffer (pH 6.5)): 0.8%
release of the drug in words ([5]; buffer): hardly released
